Assay: soluble on expression in E. coli; label from the status in PepcDB or PDB records

Which “soluble on expression in E. coli” value does the source give for “MGSDKIHHHHHHMITVSNVSVQFGKRVLFNDVNLKFTSGNCYGIIGANGAGKSTFLRTIYGDLDPTTGTIALGPGERLSVLSQDHFKWDAYTVMDTVMMGHTVLWDIMKQREVLYAKEDFTDEDGLKVSELEEKFAELDGWNAESDAAMLLSGLGIKEDKHYTLMGELSGKEKVRVMLAQALYGNPDNLLLDEPTNDLDMETVTWLEEYLSNFEHTVLVVSHDRHFLDSVCTHTVDIDYGKINMFAGNYSFWYESSQLALRQQQNQKAKAEEKKKELEEFIRRFSANVAKSKQTTSRKKMLEKLNVEEIKPSSRKYPGIIFTPEREPGNQILEVSGLSKKTEEGVVLFSDVNFNIEKGDKVVFLSRNPRAMTAFFEIINGNMKPDAGQFNWGVTITTAYLPLDNTDFFNTDLNLVDWLSQFGEGNEVYMKGFLGRMLFSGEEVLKKVSVLSGGEKMRCMIARMQLRNANCLILDTPTNHLDLESIQAFNNNLKTYKGNILFSSHDHEFIQTVANRIIELTPNGIIDKMMEYDEYITSDHIKELRAKMYGDK” here?
Its value is “not soluble”.

For “MGSDKIHHHHHHMGNYQHPGIYVQEIAIAPNIEPVAACLPLFIGHTEKSQDANGHPLPLGKRYSVSSLAEYEEHFGKGAPETLRVLLDGKGNIVNAHSYSPFYLYAAVHQYFANGGGQCEILSVGPYSRAPDASALKAAIRALPLNAAFTLVAIPDAVSLAELPQLQRKLLQYCAQQDYCLAILDVPYCNDQTREMTVNTFRHDIGQRGLQHGAAFMPWLETAAAGISGYVDLEIKYTPGVATAWNDFHKATKLQSHLLHKQLEASPAIRFNRMLPPSGSIMALFEANARKRNIWTTPNHTPIKEIISLSATIDNIIQESLNIHPTGKSINAIRRFDNALLMWGGHTLASNDSEWRYIAHLLTRGFVQASLRRFLDQQTFEKNDEATWSLVGHQCQDFLHTLWREGALVGDKPEQAFYVRIGLNQTMSTQDIAAGRIIVHVGIALLRPAEFIILKLHKVISAPDLKPAITRPGKPVNRVKIRAKTSPINVVIRQRQQPSPPSKPLPSEPVS”, which “soluble on expression in E. coli” value is on record?
The value was “not soluble”.

For “MHLRTYYPTVVLSDIHLGTQHSKTEEVTHFLKSINCDRLILNGDIIDGWHLQKSGLGKWKAKHTDFFKVIMKMMENFGTQVIYVRGNHDDFLDNLAPLNFYNIRIVKDCIYESHGRRYYVTHGDIFDTVTTQMKWLAKLGDTGYTFLLWLNKVYNLRRMKQGKPYYSLSQSIKNRVKTAVSYISDFEKELVGLARAKKCDGVICGHIHHPANTFYEDIHYLNSGDWVETLSALTEDEDGNWTIRYFDSGLLKEDNHKEKQTISITIAS”, which “soluble on expression in E. coli” value is on record?
Its value is “not soluble”.

For “MDYREVDSTSEFVCRLEHGGDWRAQIEAFADEQGIDAGFFYGLGAVQDAELMFYDQDRTEYDSLTFDEPLEVAACMGNISHFDGERFAHTHAVLSRPDGEAVAGHLNAGTVWAGELYVRGFDTELQREHDEPTDLDLWNILEHHHHHH”, which “soluble on expression in E. coli” value is on record?
Its value is “not soluble”.

For “MGSDKIHHHHHHMETLFRSFRTQLEHTSTEVVRFLHDQIAWDSRLVAILGARGVGKTTLLLQHIKLYDREDESLYVTADDFYFTKYRLFDMAYQFYNLGGKKLYIDEIHKYKDWSREVKNIYDQIPGLQVIYTGSSILDLEKGGADLSRRKVEYRLPGLSFREYLNISQGWQLPSYSLEEILAGKVEFPYKEARPLKLFNDYLSTGYYPFFQDTEYLLRLRSVINQMVESDIPIFADMTVASAVKLKKLLYVLAQSVPFKPNYTKLARDLDISRNVLPDYMSYLEKAGLVNLLREKAQGLKLLEKVEKIYLNNTNLAYALSEQVPDIGSVRETVFLSWMRVVCFVTSSAISDFEIDGRTFEIGGKNKTRQQIKQAADGYVVKDDIEYAFRNMIPLWMFGFIY”, which “soluble on expression in E. coli” value is on record?
The value was “not soluble”.

Which “soluble on expression in E. coli” value does the source give for “SRSRPAGPALLLLLLFLGAAESVRRAQPPRRYTPDWPSLDSRPLPAWFDEAKFGVFIHWGVFSVPAWGSEWFWWHWQGEGRPQYQRFMRDNYPPGFSYADFGPQFTARFFHPEEWADLFQAAGAKYVVLTTKHHEGFTNWPSPVSWNWNSKDVGPHRDLVGELGTALRKRNIRYGLYHSLLEWFHPLYLLDKKNGFKTQHFVSAKTMPELYDLVNSYKPDLIWSDGEWECPDTYWNSTNFLSWLYNDSPVKDEVVVNDRWGQNCSCHHGGYYNCEDKFKPQSLPDHKWEMCTSIDKFSWGYRRDMALSDVTEESEIISELVQTVSLGGNYLLNIGPTKDGLIVPIFQERLLAVGKWLSINGEAIYASKPWRVQWEKNTTSVWYTSKGSAVYAIFLHWPENGVLNLESPITTSTTKITMLGIQGDLKWSTDPDKGLFISLPQLPPSAVPAEFAWTIKLTGVK” here?
The value was “soluble”.

Which “soluble on expression in E. coli” value does the source give for “MTELKNDRYLRALLRQPVDVTPVWMMRQAGRYLPEYKATRAQAGDFMSLCKNAELACEVTLQPLRRYPLDAAILFSDILTVPDAMGLGLYFEAGEGPRFTSPVTCKADVDKLPIPDPEDELGYVMNAVRTIRHELKGEVPLIGFSGSPWTLATYMVEGGSSKAFTVIKKMMYADPQALHALLDKLAKSVTLYLNAQIKAGAQAVMIFDTWGGVLTGRDYQQFSLYYMHKIVDGLLRENDGRRVPVTLFTKGGGQWLEAMAETGCDALGLDWTTDIADARRRVGNKVALQGNMDPSMLYAPPARIEEEVATILAGFGHGEGHVFNLGHGIHQDVPPEHAGVFVEAVHRLSEQYHR” here?
The value was “soluble”.

Which “soluble on expression in E. coli” value does the source give for “MSEASRDDYKIQSFDAQTQQLLKTALKDPGAVDLERVANVIVDHSLQDCVFSKEAGRMCYAIIQAESKQAGQSVFRRGLLNRLQKEYDAREQLRACSLQGWVCYVTFICNIFDYLRVNNMPMMALVNPVYDCLFQLAQPESLSREEEVDCLVLQLHRVGEQLEKMNGQRMDELFILIRDGFLLPTDLSSLARLLLLEMIEFRAAGWKTTPAAHKYYYSEVSD” here?
Its value is “not soluble”.

For “MSLTALYVQNKINGKIILPFSHSMTNVLRLNRSYGRTMLISNTYNQHFPQLTQEQLARNATKKVICGMSGGVDSSVSAFILQQQGYQVEGLFMKNWEEDDDTDYCTAAADLADAQAVCDKLGIKLHKINFAAEYWDNVFEHFLTEYKAGRTPNPDILCNKEIKFKAFLEYAAEDLGADYIATGHYVRRAGDNENAKLLRGLDPNKDQSYFLYTLSHKQVGQSLFPVGEIEKPIVRAIAEDLGLITAKKKDSTGICFIGERKFKDFLARYLPAQPGNIRTVDDEIIGRHDGLMYHTLGQRKGLGIGGLKNAGDEAWYVVDKDVENNELIVAQGHDHPRLFSKGLIASQLHWVDREPIRESLRCTVKTRYRQQDIPCVIEPIDDETIRVIFDEPQSAVTPGQSAVFYLGEVCLGGGIIAERIEGHHHHHH”, which “soluble on expression in E. coli” value is on record?
Its value is “soluble”.

For “MLNSKPVSYQVLKFILKHLDPSLRIQLCLVCPSIHTLEKSTPSYIHYLKITDNSVTVNRVTCQITVTDRKVDYQFDINQFPSISGTVELRNSRNNLTKTMKYLLDKLFKGRTVKVGQLAISCENPLRVPLAARINVNVLEVFDSRSLSAASSLIANSCLPLSLIKLPFKSLLKTNNNPITSIVNRKTKKWHFKAPTTAPHNLRRVLTFLQNRRVTTAHFERGHFCFSIVIEYFMGDSDIENGTYYTFDTTRGAVFVVMERSRKRYKAMLEDGSSRRSNQLTIKKNSTSKLVISKIQQGDAWILGFKIERRRLFPTFF”, which “soluble on expression in E. coli” value is on record?
Its value is “not soluble”.

For “MSLALDHVGIATEDAAGLAERFGAVFETQIAHSETFDGMYIIFLDMNGTYLELLEPVDDSDGPIATFLAQRDAGIHHIAIMTEDIATALENARAVGIECIDETPRQGAWGHQVAFLHPRSTGGVLCEFVQQEGHHHHHH”, which “soluble on expression in E. coli” value is on record?
Its value is “soluble”.

For “DKCKKVYENYPVSKCQLANQCNYDCKLDKHARSGECFYDEKRNLQCICDYCEY”, which “soluble on expression in E. coli” value is on record?
Its value is “soluble”.

With “MGSDKIHHHHHHMKQEFLHIASSLWATVAAQISRHTGQTFAPESLTPIGGGCINQTFCIRDHERQYFVKLNKAGNLAMFESEAAGLGEILDSASLRVPQPLCCGSHHDDAWLVLEFIDLQNRGNAAALGIGLANMHRHTAETFGWIRDNTIGSTPQRNATASDWISFWRQHRLGYQLNLARKNGHTGSLQSLGERLLSEFQHFFTDTLPLPSLLHGDLWGGNYAFDQDGQPVIFDPAVYYGDREADLAMTELFGGFPPDFQAAYRDTWPVETGYTTRKQLYNLYHILNHLNLFGPQYLSQAEITMKKLLAELY” as the sequence, how does the “soluble on expression in E. coli” value read?
The value was “not soluble”.

Which “soluble on expression in E. coli” value does the source give for “MYIPKHFAVNDPDVAYQVIEENSFATLVSMHQRELFATHLPLLLDREKTCLYGHFARSNPQWNDIQHQTVLAIFHGPHCYISPSWYETNQAVPTWNYVAVHVYGNVELINDQGEVMQSLHDMVEKYEAPGSRYQLSEVDAGMLSGMNKGIQAFKIIIKRIEGKAKLSQNHPAHRQERIIKQLEQMPFENEKRIASLMKKQRQ” here?
The value was “soluble”.
